Results published in paper PMC7949049 (The Journal of Biological Chemistry, 2020).
Positions count from the first letter of the chain named. Names and notes keep the numbering of the source. Like-named read-outs stand apart in the source and are kept apart here. Blank lines part the entries; values can stand above or below the molecule they belong to. Positions of bridges follow the written chain, without caps; N, C: chain ends. Non-standard residues stand in square brackets, D forms with d. Residues, ends and D or L forms follow the SMILES beside them. No end group written: not given here. *: point of attachment. 5FAM = O=C1OC2(c3ccc(O)cc3Oc3cc(O)ccc32)c2ccc(C(=O)*)cc21; S5 = C=CCCC[C@](C)(N)C(=O)O

Experiments:
RalA (Homo sapiens) = RalA (Homo sapiens) (UniProt P11233); conditions: cited from earlier work
R-Ras (Homo sapiens) = R-Ras (Homo sapiens) (UniProt P10301); conditions: cited from earlier work
R-Ras (Homo sapiens), sequence (P10301 1-215): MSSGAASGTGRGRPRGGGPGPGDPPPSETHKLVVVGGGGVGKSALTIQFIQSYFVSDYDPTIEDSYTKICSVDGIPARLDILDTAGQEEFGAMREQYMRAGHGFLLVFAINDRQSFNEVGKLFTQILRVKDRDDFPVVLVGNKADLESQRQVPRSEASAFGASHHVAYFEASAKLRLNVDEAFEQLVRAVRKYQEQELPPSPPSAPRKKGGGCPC

RalB (Homo sapiens) = RalB (Homo sapiens) (UniProt P11234); conditions: cited from earlier work
[1] = target: SP1 stapled peptide (RLIP76) 423-446 (Homo sapiens) (UniProt Q15311); conditions: cited from earlier work
SP1 stapled peptide (RLIP76) 423-446 (Homo sapiens), sequence (Q15311 423-446): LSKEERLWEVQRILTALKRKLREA

[2] = target: SP1 stapled peptide (RLIP76) 423-446 (Homo sapiens) (UniProt Q15311); conditions: cited from earlier work; remark: listed apart in the source
[3] = target: SP1 stapled peptide (RLIP76) 423-446 (Homo sapiens) (UniProt Q15311); conditions: cited from earlier work; remark: listed apart in the source
Cdc42 = target: T1, Cdc42 (Homo sapiens, UniProt P60953, Q61L); test: Direct-binding fluorescence polarization, Cdc42; conditions: 20 nM FAM-labelled non-solubilized peptide; n ≥ 2; ± standard error from curve fitting; read-out: Kd Cdc42, FP (Table S1)
T1 construct: Cdc42 (pGEX-2T, 1–184, Q61L); GST (cleaved yes); made in house
T1 sequence (P60953 1-184 Q61L, species assumed): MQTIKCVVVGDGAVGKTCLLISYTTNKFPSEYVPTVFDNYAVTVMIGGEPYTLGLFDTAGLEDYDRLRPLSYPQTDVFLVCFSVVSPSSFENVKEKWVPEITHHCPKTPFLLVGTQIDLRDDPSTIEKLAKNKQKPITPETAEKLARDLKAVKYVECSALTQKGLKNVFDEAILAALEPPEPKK
Experimental: (§1) FP experiments were performed on a BMG Labtech Pherastar fluorimeter at 298 K with excitation at 485 nm and emission at 520 nm as described previously ([34]), using 20 nM FAM-labeled peptide. Plates were read after 30 min incubation at room temperature. Data were fitted to a single-site binding model using nonlinear regression analysis in GraphPad prism 8.4 to obtain Kd values and their standard errors.

RhoA·GMPPNP = target: T2, RhoA·GMPPNP (Homo sapiens, UniProt P61586, F25N/Q63L); test: Direct-binding fluorescence polarization, RhoA; conditions: 20 nM FAM-labelled non-solubilized peptide; n ≥ 2; ± standard error from curve fitting; read-out: Kd RhoA, FP (Table S1)
T2 construct: RhoA (pGEX-2T, 1–186, F25N/Q63L); GST (cleaved yes); made in house
T2 sequence (P61586 1-186 F25N/Q63L): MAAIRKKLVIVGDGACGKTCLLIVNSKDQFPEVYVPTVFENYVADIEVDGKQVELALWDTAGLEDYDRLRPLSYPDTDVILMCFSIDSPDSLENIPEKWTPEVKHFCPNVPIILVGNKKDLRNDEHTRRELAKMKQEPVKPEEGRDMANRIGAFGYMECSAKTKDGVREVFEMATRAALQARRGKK
Experimental: as §1

RalA = test: Direct-binding SPA of RalA to His-tagged RLIP76 RBD variants; conditions: [3H]GTP-labelled RalA titrated, 80 nM His-tagged RBD, n = 2, experiment of Fig. S1
Experimental: Ral proteins were labeled with [^3H]GTP for use in SPAs as follows. [^3H]GTP (0.15 mCi, PerkinElmer Life Sciences) was dried by centrifugal evaporation. Ral (0.7 mg) and 0.3 M (NH4)2SO4 were added in 140 μl of buffer (10 mM Tris-HCl, 150 mM NaCl, 1 mM DTT, pH 7.5). The mixture was incubated at 37 °C for 3 h, and unbound nucleotide was removed with Sephadex G25 spin columns (GE Healthcare).
[^3H]GTP·Ral proteins were titrated at the concentrations indicated in the results. […] The equilibrium binding constants (Kd) for the effector–Ral interactions were determined by monitoring the SPA signal in the presence of varying concentrations of [^3H]GTP·Ral and fitted using nonlinear regression with the computer program Grafit.

[4] = target: T3, RalB (residues 1–185, Q72L) (UniProt P11234 1-185, Q72L); test: fluorescence polarisation; 20 nM FAM-labeled peptide, varying concentrations of GMPPNP-bound small GTPases, 298 K, single-site model; conditions: both partners purified
T3 construct: Loaded with [3H]GTP for SPA, with GMPPNP for ITC, FP and crystallisation; also called RalB·GTP; source: expressed from pMAT10 as His6-MBP fusion, cleaved from its tag as described previously
T3 sequence (looked up): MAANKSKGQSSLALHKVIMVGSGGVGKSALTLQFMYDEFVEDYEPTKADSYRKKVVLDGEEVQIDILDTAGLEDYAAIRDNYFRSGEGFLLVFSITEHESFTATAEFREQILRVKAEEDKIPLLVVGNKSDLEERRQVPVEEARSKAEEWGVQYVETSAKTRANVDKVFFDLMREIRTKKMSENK

[5] = target: T4, RalA (residues 1–184, Q72L) (UniProt P11233 1-184, Q72L); test: as above; conditions: both partners purified
T4 construct: RalA small GTPase, residues 1-184, constitutively active Q72L; Loaded with [3H]GTP for SPA, with GMPPNP or GDP for fluorescence polarisation; also called RalA·GTP; [3H]-GTP RalA; source: expressed from pMAT10 as His6-MBP fusion, cleaved from its tag as described previously
T4 sequence (looked up): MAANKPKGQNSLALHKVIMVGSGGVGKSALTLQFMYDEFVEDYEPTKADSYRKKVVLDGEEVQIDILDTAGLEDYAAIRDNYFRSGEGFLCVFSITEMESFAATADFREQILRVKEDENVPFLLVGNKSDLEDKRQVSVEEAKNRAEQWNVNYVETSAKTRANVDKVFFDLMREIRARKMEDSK

[6] = target: T5, RalB (residues 1-185, Q72L) (UniProt P11234 1-185, Q72L); test: fluorescence polarisation; direct binding of 20 nM FAM-labelled peptide to varying concentrations of small GTPase; 298 K; read after 30 min at room temperature; single-site binding model; n >= 2; conditions: both partners purified
T5 construct: source: expressed from pMAT10 as His6-MBP fusion, prepared and cleaved from its tags as described previously
T5 sequence (looked up): T3 sequence (looked up)

[7] = target: T6, RalA (residues 1-184, Q72L) (UniProt P11233 1-184, Q72L); test: as above; conditions: both partners purified
T6 construct: RalA small GTPase, residues 1-184, constitutively active Q72L; Loaded with [3H]GTP for the SPAs; also called [3H]GTP-labelled RalA; source: expressed from pMAT10 as His6-MBP fusion, prepared and cleaved from its tags as described previously
T6 sequence (looked up): T4 sequence (looked up)

[8] = target: T3, RalB (residues 1–185, Q72L); test: scintillation proximity assay (competition); His-tagged wild-type RLIP76 RBD immobilised on SPA beads, fixed [3H]GTP·RalA (100 nM) or [3H]GTP·RalB (250 nM), competitor RBD or peptide titrated; pure competition model, apparent Kd (Ki); conditions: both partners purified
[9] = target: T4, RalA (residues 1–184, Q72L); test: as above; conditions: both partners purified
[10] = target: T4, RalA (residues 1–184, Q72L); test: as above; conditions: both partners purified; remark: listed apart in the source
[11] = target: T4, RalA (residues 1–184, Q72L); test: scintillation proximity assay (competition); GST-tagged Sec5 RBD immobilised on SPA beads, fixed [3H]-GTP RalA, peptides or RLIP76 RBD titrated; pure competition model, apparent Kd (Ki); conditions: both partners purified

Molecule: SP1 stapled peptide 423-446 (from UniProt Q15311)
- Kd (RalA (Homo sapiens)): 14 µM
- Kd (R-Ras (Homo sapiens)): 30 µM
- Kd (RalB (Homo sapiens)): 5 µM

Molecule: R-Ras (from UniProt P10301)
- Kd [1]: 30 µM

Molecule: RalB (from UniProt P11234)
- Kd [2]: 5 µM

Molecule: RalA (from UniProt P11233)
- Kd [3]: 14 µM

- Kd (Cdc42): 6.11 ± 1.67 µM
- Kd (RhoA·GMPPNP): 0.0125 ± 0.0022 µM
Molecule: CC[C@H](C)[C@H](NC(=O)[C@H](CCCNC(=N)N)NC(=O)[C@H](CC(C)C)NC(=O)[C@@H](NC(=O)[C@H](CCC(=O)O)NC(=O)[C@H](Cc1c[nH]c2ccccc12)NC(=O)[C@H](CC(C)C)NC(=O)[C@]1(C)CCCC=CCCC[C@](C)(NC(=O)[C@H](CC(C)C)NC(=O)c2ccc3c(c2)C(=O)OC32c3ccc(O)cc3Oc3cc(O)ccc32)C(=O)N[C@@H](CCCCN)C(=O)N[C@@H](CCC(=O)O)C(=O)N[C@@H](Cc2c[nH]cn2)C(=O)N1)C(C)C)C(=O)N[C@@H](CC(C)C)C(=O)N[C@H](C(=O)N[C@@H](C)C(=O)N[C@@H](CC(C)C)C(=O)N[C@@H](CCCNC(=N)N)C(=O)N[C@@H](CCCNC(=N)N)C(=O)N[C@@H](CCCCN)C(=O)N[C@@H](CC(C)C)C(=O)N[C@@H](CCCNC(=N)N)C(=O)N[C@@H](CCC(=O)O)C(=O)N[C@@H](C)C(N)=O)[C@@H](C)O [HLR-SP1] (5FAM-L[S5]KEH[S5]LWEVLRILTALRRKLREA-NH2; staple 2-6)

- apparent Kd RalA, direct SPA (Fig. S1) (RalA; listed as E426L/E427T/Q433T/R434L/T437R): did not bind
Molecule: LTTLR mutant: His-tagged RLIP76 RBD consensus sequence lacking the K440P substitution (ETQAGIKEEIRRQEFLLNSLHRDLQGGIKDLSKLTRLWEVTLILRALKRKLREA; also: His-tagged, tag position not given here)
- apparent Kd RalA, direct SPA (Fig. S1) (RalA): no fit could be obtained as binding was too weak

- Kd [4]: 21.1 µM
- Kd [5]: 16.6 µM
B1: FAM-labeled HLR-sol stapled peptide (peptide)
chain: L[S5]KEH[S5]LWEELRIKTAERRKKREA-NH2
modifications: staple 2-6; not fully specified (N-terminus); also: 5-carboxyfluorescein (FAM) label, site not given here

- Kd [6]: 4.7 µM
- Kd [7]: 17.2 µM
Molecule: 5FAM-L[S5]KEE[S5]LWEVQRILTALKRKLREA (staple 2-6)

- Kd [6]: 0.159 µM
- Kd [7]: 4.68 µM
Molecule: 5FAM-L[S5]KEH[S5]LWEVLRILTALRRKLREA (staple 2-6)

- Kd [4]: 24.4 µM
- Kd [5]: 19.8 µM
B2: FAM-labeled L-sol stapled peptide (peptide)
chain: L[S5]KEE[S5]LWEELRIKTAEKRKKREA-NH2
modifications: staple 2-6; not fully specified (N-terminus); also: 5-carboxyfluorescein (FAM) label, site not given here

- Kd [8]: 10.3 µM
- Kd [9]: 2.75 µM
B3: RLIP76 RBD WNASELR mutant (domain or fragment)
chain: ETQAGIKEEIRRQEFLLNSLHRDLQGGIKDLSKWNRAWEVSEILLALRRKLREA
notes: RLIP76 residues 423-446 (helix α2); Selected by CIS display; source: E. coli, recombinant; cleaved from its tag

- Kd [8]: 1.2 µM
- Kd [9]: 0.53 µM
B4: RLIP76 RBD WDASTAY mutant (domain or fragment)
chain: B3 chain with N35D, E42T, L45A, R48Y
notes: as for B3

- Kd [10]: 3.09 µM
- Kd [11]: 1.81 µM
B5: L-sol stapled peptide (peptide)
chain: L[S5]KEE[S5]LWEELRIKTAEKRKKREA-NH2
modifications: staple 2-6; N-terminus assumed
SMILES: CC[C@H](C)[C@H](NC(=O)[C@H](CCCNC(=N)N)NC(=O)[C@H](CC(C)C)NC(=O)[C@H](CCC(=O)O)NC(=O)[C@H](CCC(=O)O)NC(=O)[C@H](Cc1c[nH]c2ccccc12)NC(=O)[C@H](CC(C)C)NC(=O)[C@]1(C)CCCC=CCCC[C@](C)(NC(=O)[C@@H](N)CC(C)C)C(=O)N[C@@H](CCCCN)C(=O)N[C@@H](CCC(=O)O)C(=O)N[C@@H](CCC(=O)O)C(=O)N1)C(=O)N[C@@H](CCCCN)C(=O)N[C@H](C(=O)N[C@@H](C)C(=O)N[C@@H](CCC(=O)O)C(=O)N[C@@H](CCCCN)C(=O)N[C@@H](CCCNC(=N)N)C(=O)N[C@@H](CCCCN)C(=O)N[C@@H](CCCCN)C(=O)N[C@@H](CCCNC(=N)N)C(=O)N[C@@H](CCC(=O)O)C(=O)N[C@@H](C)C(N)=O)[C@@H](C)O

- Kd [10]: 2.97 µM
- Kd [11]: 1.74 µM
B6: HLR-sol stapled peptide (peptide)
chain: L[S5]KEH[S5]LWEELRIKTAERRKKREA-NH2
modifications: staple 2-6; N-terminus assumed
SMILES: CC[C@H](C)[C@H](NC(=O)[C@H](CCCNC(=N)N)NC(=O)[C@H](CC(C)C)NC(=O)[C@H](CCC(=O)O)NC(=O)[C@H](CCC(=O)O)NC(=O)[C@H](Cc1c[nH]c2ccccc12)NC(=O)[C@H](CC(C)C)NC(=O)[C@]1(C)CCCC=CCCC[C@](C)(NC(=O)[C@@H](N)CC(C)C)C(=O)N[C@@H](CCCCN)C(=O)N[C@@H](CCC(=O)O)C(=O)N[C@@H](Cc2c[nH]cn2)C(=O)N1)C(=O)N[C@@H](CCCCN)C(=O)N[C@H](C(=O)N[C@@H](C)C(=O)N[C@@H](CCC(=O)O)C(=O)N[C@@H](CCCNC(=N)N)C(=O)N[C@@H](CCCNC(=N)N)C(=O)N[C@@H](CCCCN)C(=O)N[C@@H](CCCCN)C(=O)N[C@@H](CCCNC(=N)N)C(=O)N[C@@H](CCC(=O)O)C(=O)N[C@@H](C)C(N)=O)[C@@H](C)O
